Source: patent US20190309074A1, “DEGLYCOSYLATED ANTIBODY SPECIFICALLY BINDING TO CLEC14A AND USES THEREOF” (WOORI TECHNOLOGIES CORPORATION, priority 2016, published 2019)
Blank lines part the entries; values can stand above or below the molecule they belong to.

Tests used:
SNU182 cells = assay: tumor cell-derived Matrigel plug angiogenesis assay; type: in vivo, mouse; conditions: single dose of 10 mg/kg, 2 weeks, nude mice
Experimental: (§1) In order to investigate in vivo effects of deglyco C1 IgG on tumor angiogenesis, tumor cell-derived Matrigel plug angiogenesis assay was conducted on thymus-removed nude mice. SNU182- and CFPAC-1 cells and U87 human glioma cells containing Matrigel were transplanted into thymus-removed nude mice in the presence of deglyco C1 IgG and bevacizumab with a single dose of 10 mg/kg or in the absence thereof. 2 weeks later, the Matrigel plug was removed and the total hemoglobulin content of each group was measured with an ELISA reader.

CFPAC-1 cells = assay: as above; type: in vivo, mouse; conditions: single dose of 10 mg/kg, 2 weeks, nude mice
Experimental: as §1

U87 human glioma cells = assay: as above; type: in vivo, mouse; conditions: single dose of 10 mg/kg, 2 weeks, nude mice
Experimental: as §1

[1] = system: HCT116 human colorectal cancer cells; assay: Matrigel plug angiogenesis assay, CD31 microvessel density; type: in vivo; conditions: single dose of 5 mg/kg, 14 days
Experimental: (§2) Matrigel plug angiogenesis assay was conducted in the presence of deglyco C1 IgG or bevacizumab with a single dose of 5 mg/kg or the absence thereof using HCT116 human colorectal cancer cells and bevacizumab-applied HCT116 human colorectal cancer cells (HCT116 and HCT116/Beva). 14 days later, the Matrigel plug was removed, and immunohistochemistry was conducted on CD31 and microvascular markers. A microvessel density was measured by quantifying CD31 positive per field in an image each obtained by a confocal microscope.

HCT116/Beva cells = assay: as above; type: in vivo; conditions: single dose of 5 mg/kg, 14 days
Experimental: as §2

U87 human glioma = assay: U87 tumor growth; type: in vivo; conditions: measured weekly for one month
[2] = system: VEGF-dependent blood vessel growth in rat aorta; assay: ex vivo rat aortic ring assay; conditions: cultured in combination with VEGF
Experimental: In order to further investigate effects of deglyco C1 IgG on VEGF-dependent angiogenesis, ex vivo rat aortic ring assay was conducted in the presence or absence of deglyco C1 IgG and bevacizumab. Blood vessels were almost not grown in the rat aorta in endothelial basal medium (EBM), whereas most blood vessels were grown in the rat aorta under VEGF expression conditions.

[3] = system: VEGF-dependent microvessel formation; assay: mouse Matrigel plug assay, VEGF-dependent microvessel formation; type: in vivo
Experimental: In order to observe in vivo efficacies of deglyco C1 IgG on VEGF-dependent angiogenesis, a mouse Matrigel model was established, hemoglobin level was measured as a marker of microvessel formation, and inhibitory activities against microvessel formation of deglyco C1 IgG and bevacizumab were compared by a mouse Matrigel plug assay.

HUVECs = assay: HUVEC viability (cell counting Kit-8); type: cell-based, human; conditions: 2 days
Experimental: In order to evaluate effects of deglyco C1 IgG on toxicity of endothelial cells, after treatment with deglyco C1 IgG, viability of HUVECs was measured. Viability was measured in accordance with the manufacturer's manual through cell counting Kit-8 (#CK04-13, Dojindo Laboratories, Kumamoto, Japan).

hclec14a-ECD-myc [4] = target: T1, hclec14a-ECD-myc (human, UniProt Q86T13 22-397); assay: ELISA, hclec14a-CTLD-Fc-HRP with hclec14a-ECD
T1 construct: extracellular domain; Purified protein; also called extracellular domain of human clec14a; not shown: myc tag
T1 sequence (looked up): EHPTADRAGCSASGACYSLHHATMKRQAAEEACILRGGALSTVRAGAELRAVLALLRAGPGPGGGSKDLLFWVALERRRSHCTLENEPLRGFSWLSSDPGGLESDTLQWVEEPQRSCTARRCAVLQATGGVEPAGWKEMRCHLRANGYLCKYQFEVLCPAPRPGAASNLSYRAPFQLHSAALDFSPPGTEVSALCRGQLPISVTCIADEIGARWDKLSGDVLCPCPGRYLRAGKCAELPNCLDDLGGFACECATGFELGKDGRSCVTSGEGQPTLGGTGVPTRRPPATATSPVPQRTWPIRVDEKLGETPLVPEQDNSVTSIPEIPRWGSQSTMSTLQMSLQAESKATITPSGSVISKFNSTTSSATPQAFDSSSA
Experimental: In addition, hclec14a-CTLD-Fc-HRP was incubated together with purified hclec14a-ECD in the presence of an increasing concentration of parent antibody IgG or deglyco C1 IgG, or in the absence thereof.

[5] = target: T2, human CLEC14a on human umbilical vein endothelial cells (HUVECs) (human, UniProt Q86T13 22-490); assay: cell ELISA on HUVECs coated on the plate
T2 construct: whole, on cells; also called CLEC14a on HUVEC surfaces
T2 sequence (looked up): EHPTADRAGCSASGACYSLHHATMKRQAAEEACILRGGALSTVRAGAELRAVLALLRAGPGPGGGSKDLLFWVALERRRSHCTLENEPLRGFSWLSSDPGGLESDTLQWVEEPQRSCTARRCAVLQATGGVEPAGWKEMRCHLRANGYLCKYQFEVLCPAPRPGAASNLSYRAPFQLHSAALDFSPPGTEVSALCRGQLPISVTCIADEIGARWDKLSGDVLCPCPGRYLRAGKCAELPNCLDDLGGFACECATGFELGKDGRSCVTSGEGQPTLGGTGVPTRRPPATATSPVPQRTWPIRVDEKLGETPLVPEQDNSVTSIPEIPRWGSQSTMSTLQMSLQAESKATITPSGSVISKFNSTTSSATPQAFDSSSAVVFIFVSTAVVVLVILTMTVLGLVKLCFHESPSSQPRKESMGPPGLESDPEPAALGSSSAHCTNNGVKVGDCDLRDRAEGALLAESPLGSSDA
Experimental: In order to analyze action mechanisms of deglyco C1 IgG at a molecule-scale, specifically, in angiogenesis, HUVECs were treated with hclec14a-CTLD-Fc-HRP (HRP-labeled hclec14a-CTLD-Fc) in the absence or presence of an increasing concentration of parent antibody IgG or deglyco C1 IgG.

[6] = target: T3, mouse CLEC14a on mouse aortic endothelial cells (MAECs) (mouse, UniProt Q8VCP9 22-459); assay: flow cytometry on MAEC
T3 construct: whole, on cells
T3 sequence (looked up): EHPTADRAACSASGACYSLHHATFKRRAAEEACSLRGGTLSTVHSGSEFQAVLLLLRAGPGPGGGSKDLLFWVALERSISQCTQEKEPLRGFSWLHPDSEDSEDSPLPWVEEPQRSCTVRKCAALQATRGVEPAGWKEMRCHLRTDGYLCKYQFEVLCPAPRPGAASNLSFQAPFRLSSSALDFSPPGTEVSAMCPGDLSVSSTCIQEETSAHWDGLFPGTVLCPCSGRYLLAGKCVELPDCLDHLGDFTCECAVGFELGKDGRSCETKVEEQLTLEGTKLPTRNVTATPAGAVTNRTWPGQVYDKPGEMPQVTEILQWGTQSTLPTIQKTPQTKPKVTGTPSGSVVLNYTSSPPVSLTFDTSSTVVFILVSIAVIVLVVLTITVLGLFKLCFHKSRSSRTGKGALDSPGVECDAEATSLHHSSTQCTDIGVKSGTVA
Experimental: (§3) In order to identify cross-species reactivity of the optimized antibodies, HUVECs (human umbilical vein endothelial cells) and MAECs (mouse aortic endothelial cells) were each cultured, the two cell groups were treated with 20 ug/ml of the parent antibody (original C1), deglyco C1, and clones 1, 13 and 16, and whether or not binding ability exists on the surface of two types of cells was identified by flow cytometry.

[7] = target: T2, human CLEC14a on human umbilical vein …; assay: flow cytometry on HUVEC
Experimental: as §3

hclec14a-ECD-myc [8] = target: T1, hclec14a-ECD-myc; assay: biolayer interferometry (Octet RED96), curves at 62.5, 31.25, 15.625 and 7.8125 nM
hclec14a-ECD-myc [9] = target: T1, hclec14a-ECD-myc; assay: biolayer interferometry, Octet RED96
mclec14a-CTLD-Fc = target: T4, mclec14a-CTLD-Fc (mouse, UniProt Q8VCP9 31-172, limits assumed); assay: ELISA on mclec14a-CTLD-Fc
T4 construct: domain: C-type lectin-like domain (CTLD); also called mouse clec14a-CTLD-Fc; mouse CTLD; not shown: Fc
T4 sequence (looked up): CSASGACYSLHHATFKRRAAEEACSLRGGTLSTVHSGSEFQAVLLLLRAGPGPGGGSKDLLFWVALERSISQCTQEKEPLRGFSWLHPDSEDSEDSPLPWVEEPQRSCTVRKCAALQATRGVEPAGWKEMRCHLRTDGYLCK

Molecule: bevacizumab [reference compound]
hemoglobin content, SNU182-derived (SNU182 cells): significantly reduced hemoglobin
hemoglobin content, CFPAC-1-derived (CFPAC-1 cells): significantly reduced hemoglobin
hemoglobin content, U87-derived (U87 human glioma cells): significantly reduced hemoglobin
microvessel formation (CD31 positive per field), HCT116 [1]: significantly reduced microvessel formation ability
microvessel formation (CD31 positive per field), HCT116/Beva (HCT116/Beva cells): not suppressed
tumor size of U87 cells (U87 human glioma): significantly reduces the tumor sizes
number of blood vessels grown in the rat aorta [2]: reduced the number of blood vessels grown in the rat aorta
hemoglobin content (microvessel formation) [3]: significantly reduced a hemoglobin content

Molecule: O=c1[nH]cc(F)c(=O)[nH]1 [Opti 5-FU, 5-fluorouracil, reference compound]
viability of HUVECs (HUVECs): significantly reduced viability

binding result (hclec14a-ECD-myc [4]): binds
binding result [5]: binds
B1: hclec14a-CTLD-Fc (Fc fusion, human, UniProt Q86T13 31-172, looked up)
chain: CSASGACYSLHHATMKRQAAEEACILRGGALSTVRAGAELRAVLALLRAGPGPGGGSKDLLFWVALERRRSHCTLENEPLRGFSWLSSDPGGLESDTLQWVEEPQRSCTARRCAVLQATGGVEPAGWKEMRCHLRANGYLCK
notes: domain: C-type lectin-like domain (CTLD); also called human clec14a-CTLD-Fc; human CTLD; not shown: Fc

binding result [6]: binds
binding result [7]: binds
B2: Opti 13 (antibody, V domains shown)
VH: EVQLVESGGGLVQPGGSLRLSCAVSGFTFSGYDMSWIRQAPGKGLEWVAGIYPDGGNTYYADSVKGRFTISRDDSKNTFYLQMNSLRAEDTAVYYCARGAMEQVLGPFDLWGQGTLVTVSS
VL: DIQLTQSPSSLSASVGDRVTITCTGSSSNIGRCGVTWYQQKPGKAPKLLIYADSHRPSGVPSRFSGSGSGTDFTLTISSLQPEDFATYYCGAWDDSLSGYVFGQGTKVEIKR
notes: IgG from HEK293 cells; also called clone 13; optimized antibody clone 13

binding result [6]: binds
binding result [7]: binds
B3: Opti 1 (antibody, V domains shown)
VH: EVQLVESGGGLVQPGGSLRLSCAVSGFTFSGYDMSWIRQAPGKGLEWVAGIYPDGGNTYYADSVKGRFTISRDDSKNTFYLQMNSLRAEDTAVYYCARGAATKVLGKFDCWGQGTLVTVSS
VL: DIQLTQSPSSLSASVGDRVTITCTGSSSNIGRCGVTWYQQKPGKAPKLLIYADSHRPSGVPSRFSGSGSGTDFTLTISSLQPEDFATYYCGAWDDSLSGYVFGQGTKVEIKR
notes: IgG from HEK293 cells; also called optimized antibody clone 1

binding result [6]: binds
Kd (hclec14a-ECD-myc [8]): 6.07 nM
koff (hclec14a-ECD-myc [8]): 0.000297 s⁻¹
kon (hclec14a-ECD-myc [8]): 49000 M⁻¹ s⁻¹
Kd (hclec14a-ECD-myc [9]): 6 nM
binding result (mclec14a-CTLD-Fc): binds
B4: deglyco C1 IgG (antibody, V domains shown)
VH: EVQLVESGGGLVQPGGSLRLSCAVSGFTFSGYDMSWIRQAPGKGLEWVAGIYPDGGNTYYADSVKGRFTISRDDSKNTFYLQMNSLRAEDTAVYYCARGATWWVLGPFDYWGQGTLVTVSS
VL: DIQLTQSPSSLSASVGDRVTITCTGSSSNIGRCGVTWYQQKPGKAPKLLIYADSHRPSGVPSRFSGSGSGTDFTLTISSLQPEDFATYYCGAWDDSLSGYVFGQGTKVEIKR
notes: IgG expressed in HEK293 cells; In some assays conjugated with HRP; also called Deg C1; deglyco C1 IgG-HRP (HRP-conjugated form)
